Three substances from patent publication US20020147129A1 can be followed below.

Assay [1] has as its target embryonic chicken Ang II receptor (chicken). The experiment in a line: competition for 125I[Sar1Ile8]Ang II binding, E13 chicken chorioallantoic membranes.
Assay [2] has as its target embryonic chicken AT4 receptor (chicken). Put plainly: competition for [125I]Ang IV binding, E13 chicken chorioallantoic membranes.
For assay [3], the target named is AT4 receptor of sheep central nervous system (sheep). The experiment in a line: competition for [125I]Ang IV binding, sheep cerebellar cortical membranes.
In assay [4] the target is angiotensin AT4 receptor of Macaca fascicularis brain (Macaca fascicularis). The experiment in a line: competition for [125I]Ang IV binding, monkey prefrontal cortical sections.
Assay [5] deals with AT4 receptor of sheep central nervous system (sheep). The experiment in a line: competition for 125I-LVV-haemorphin-7 binding, sheep cerebellar cortical membranes.

Sequence of embryonic chicken Ang II receptor (chicken) (P79785 whole entry): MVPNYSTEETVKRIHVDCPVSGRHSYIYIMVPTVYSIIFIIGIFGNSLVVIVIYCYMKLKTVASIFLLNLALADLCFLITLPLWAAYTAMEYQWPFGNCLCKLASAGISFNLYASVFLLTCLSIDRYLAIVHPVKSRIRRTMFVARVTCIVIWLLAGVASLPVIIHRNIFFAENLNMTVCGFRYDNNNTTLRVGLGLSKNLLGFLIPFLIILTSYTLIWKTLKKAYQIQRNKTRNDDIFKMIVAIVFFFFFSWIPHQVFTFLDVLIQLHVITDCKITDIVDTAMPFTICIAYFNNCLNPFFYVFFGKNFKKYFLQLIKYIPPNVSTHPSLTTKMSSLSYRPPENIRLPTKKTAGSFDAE

Usually IC50 stands for the midpoint of a concentration-inhibition curve. CGP 42112 (peptide) registered an IC50 in assay [1] of 0.18 µM. Moreover, the concentration effective at competing for 50% of the sites in assay [2] is 0.5 µM.

For “angiotensin II (from UniProt P01019 25-32) (peptide)”, the IC50 worked out at 0.1 µM in assay [1], 2 µM in assay [3], 0.73 µM in assay [4] and 1.6 µM in assay [5].

Turning to “angiotensin III (from UniProt P01019 26-32) (peptide)”, the IC50 in assay [3] was 0.0069 µM; in assay [4], 0.08 µM; in assay [5], 0.077 µM.
